Test results reported in patent US20220088057.

System: GST-fusion SMAD3 protein (Sigma-Aldrich Co. LLC.)

His-fusion NEK6 protein (Eurofins Scientific SE)
amount of phosphorylated SMAD3 (Western blot after in vitro kinase reaction of purified proteins with ATP): By using NEK6 protein, the amount of phosphorylated SMAD3 was elevated
